# Assay results taken from patent publication US6849727.
# No end group written: not given here.
# Experiments:
# [1] = target: rat spinal cord membrane receptor; assay: competition binding, rat spinal cord membranes (SEM 0; may be a floor value)
# [2] = target: rat neuropeptide FF receptor (NPFF1) (rat) (UniProt Q9EP86); assay: competition vs [125I]D-Tyr-NPFF, COS-7 membranes (SEM 0; may be a floor value)
# [3] = target: rat spinal cord membrane receptor; assay: competition binding, rat spinal cord membranes
# Sequence of rat neuropeptide FF receptor (NPFF1) (rat) (Q9EP86 whole entry): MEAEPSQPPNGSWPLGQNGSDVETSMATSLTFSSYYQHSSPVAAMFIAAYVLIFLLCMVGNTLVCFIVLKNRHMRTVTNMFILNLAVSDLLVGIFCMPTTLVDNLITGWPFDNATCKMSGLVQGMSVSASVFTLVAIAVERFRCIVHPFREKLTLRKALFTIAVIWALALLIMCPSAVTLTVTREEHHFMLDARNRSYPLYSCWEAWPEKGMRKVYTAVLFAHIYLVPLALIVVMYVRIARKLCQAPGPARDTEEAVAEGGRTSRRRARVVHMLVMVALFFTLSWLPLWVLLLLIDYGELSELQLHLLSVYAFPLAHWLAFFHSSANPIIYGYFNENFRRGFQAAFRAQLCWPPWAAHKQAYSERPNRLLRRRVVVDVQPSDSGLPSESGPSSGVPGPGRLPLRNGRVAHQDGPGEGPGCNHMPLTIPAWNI
pKi [1],pKi [2],pKi [3],Molecule
5,5,,Met5-Arg6-Phe7-Enk-OH (peptide)
,5,,Tyr-MIF-1 (peptide)
,,9.05,rat NPFF (FLFQPQRF-NH2) (peptide)
,,9,AGEGLSSPFWSLAAPQRF-NH2 [rat A-18-F-amide (…-NH2)]
,,6.39,PDVDHVFLRF-NH2 [Schisto(FLRFNH2) (Pro-Asp-Val-Asp-His-Val-Phe-Leu-Arg-Phe-amide)]
,,7.96,H-KHQYLRF-NH2 [AF-2 (H-Lys-His-Gln-Tyr-Leu-Arg-Phe-NH2)]
,,7.56,H-KNQFIRF-NH2 [AF-1 (FMRF-like peptide H2N-Lys-Asn-Gln-Phe-Ile-Arg-Phe-NH2)]
